Assay results taken from the supplement of paper PMC9112550, “Optimization of the antimicrobial peptide Bac7 by deep mutational scanning” (BMC Biology, 2022).

test system: Escherichia coli TOP10; assay: shrunken log2 fold change of peptide-encoding DNA abundance (4.5 h post-induction vs induction); higher = less antimicrobial activity (less host growth inhibition); details: time post-induction: 4.5 h; library: site-saturation at positions 5, 18, 19, 20
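Note: peptides expressed intracellularly from a pBAD plasmid library in pooled LB shake-flask culture, induced with 0.3% L-arabinose, DNA abundance read by NGS, three biological replicates, DESeq2 with apeglm shrinkage.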

Row | Sequence | shrunken log2 fold change
1 | RRIRHRPPRLPRPRPRPGWTPRP | -0.00563
2 | RRIRHRPPRLPRPRPRPGYMPRP | -0.49
3 | RRIRHRPPRLPRPRPRPGYNPRP | -0.418
4 | RRIRHRPPRLPRPRPRPHAAPRP | 0.292
5 | RRIRHRPPRLPRPRPRPHAFPRP | -0.0301
6 | RRIRHRPPRLPRPRPRPHAHPRP | -0.072
7 | RRIRHRPPRLPRPRPRPHANPRP | -0.124
8 | RRIRHRPPRLPRPRPRPHASPRP | 0.00288
9 | RRIRHRPPRLPRPRPRPHCDPRP | -0.0744
10 | RRIRHRPPRLPRPRPRPHCGPRP | -0.0402
11 | RRIRHRPPRLPRPRPRPHCHPRP | -0.551
12 | RRIRHRPPRLPRPRPRPHDQPRP | -0.104
13 | RRIRHRPPRLPRPRPRPHFLPRP | -0.0519
14 | RRIRHRPPRLPRPRPRPHFVPRP | -0.136
15 | RRIRHRPPRLPRPRPRPHGCPRP | -0.0438
16 | RRIRHRPPRLPRPRPRPHGNPRP | -1.11
17 | RRIRHRPPRLPRPRPRPHGRPRP | -0.219
18 | RRIRHRPPRLPRPRPRPHIQPRP | -0.701
19 | RRIRHRPPRLPRPRPRPHKLPRP | -0.279
20 | RRIRHRPPRLPRPRPRPHKSPRP | -0.337
21 | RRIRHRPPRLPRPRPRPHMCPRP | -0.0681
22 | RRIRHRPPRLPRPRPRPHQDPRP | -0.249
23 | RRIRHRPPRLPRPRPRPHQPPRP | -0.0185
24 | RRIRHRPPRLPRPRPRPHREPRP | 0.00911
25 | RRIRHRPPRLPRPRPRPHRGPRP | -0.0108

Row | Sequence | shrunken log2 fold change
26 | RRIRHRPPRLPRPRPRPHSSPRP | -0.0394
27 | RRIRHRPPRLPRPRPRPHTEPRP | -0.406
28 | RRIRHRPPRLPRPRPRPHTVPRP | -0.606
29 | RRIRHRPPRLPRPRPRPHTWPRP | -0.301
30 | RRIRHRPPRLPRPRPRPHVKPRP | -0.00471
31 | RRIRHRPPRLPRPRPRPHVVPRP | -0.0954
32 | RRIRHRPPRLPRPRPRPIATPRP | -0.0153
33 | RRIRHRPPRLPRPRPRPIAYPRP | -0.149
34 | RRIRHRPPRLPRPRPRPICIPRP | -0.577
35 | RRIRHRPPRLPRPRPRPICTPRP | -0.485
36 | RRIRHRPPRLPRPRPRPICVPRP | 0.0683
37 | RRIRHRPPRLPRPRPRPIDPPRP | 0.0865
38 | RRIRHRPPRLPRPRPRPIEWPRP | -0.02
39 | RRIRHRPPRLPRPRPRPIEYPRP | -0.129
40 | RRIRHRPPRLPRPRPRPIFDPRP | -0.0378
41 | RRIRHRPPRLPRPRPRPIFNPRP | -0.447
42 | RRIRHRPPRLPRPRPRPIGEPRP | -0.00286
43 | RRIRHRPPRLPRPRPRPIHHPRP | -0.216
44 | RRIRHRPPRLPRPRPRPIKQPRP | -0.0565
45 | RRIRHRPPRLPRPRPRPILRPRP | -0.178
46 | RRIRHRPPRLPRPRPRPIMQPRP | -0.228
47 | RRIRHRPPRLPRPRPRPIMRPRP | -0.0864
48 | RRIRHRPPRLPRPRPRPIMWPRP | -0.0163
49 | RRIRHRPPRLPRPRPRPINCPRP | 0.00172
50 | RRIRHRPPRLPRPRPRPINFPRP | -0.368

Row | Sequence | shrunken log2 fold change
51 | RRIRHRPPRLPRPRPRPIPVPRP | -0.037
52 | RRIRHRPPRLPRPRPRPIQAPRP | -0.0107
53 | RRIRHRPPRLPRPRPRPIQYPRP | -0.122
54 | RRIRHRPPRLPRPRPRPISHPRP | -0.0873
55 | RRIRHRPPRLPRPRPRPISMPRP | -1.58
56 | RRIRHRPPRLPRPRPRPITGPRP | 0.015
57 | RRIRHRPPRLPRPRPRPIVLPRP | 0.00695
58 | RRIRHRPPRLPRPRPRPIVPPRP | 0.0781
59 | RRIRHRPPRLPRPRPRPIYEPRP | -0.234
60 | RRIRHRPPRLPRPRPRPIYMPRP | -0.0111
61 | RRIRHRPPRLPRPRPRPIYTPRP | -1.35
62 | RRIRHRPPRLPRPRPRPKAAPRP | 0.0902
63 | RRIRHRPPRLPRPRPRPKADPRP | 0.117
64 | RRIRHRPPRLPRPRPRPKAHPRP | -0.145
65 | RRIRHRPPRLPRPRPRPKANPRP | 0.174
66 | RRIRHRPPRLPRPRPRPKAVPRP | -0.00256
67 | RRIRHRPPRLPRPRPRPKAYPRP | 0.0124
68 | RRIRHRPPRLPRPRPRPKCEPRP | -0.148
69 | RRIRHRPPRLPRPRPRPKDCPRP | 0.00375
70 | RRIRHRPPRLPRPRPRPKDEPRP | 0.0349
71 | RRIRHRPPRLPRPRPRPKFPPRP | 0.442
72 | RRIRHRPPRLPRPRPRPKGCPRP | 0.031
73 | RRIRHRPPRLPRPRPRPKGGPRP | 0.0418
74 | RRIRHRPPRLPRPRPRPKHTPRP | -0.104
75 | RRIRHRPPRLPRPRPRPKKCPRP | -0.225
